Measurements published in PMC3303851, “Structural Basis of Ets1 Cooperative Binding to Widely Separated Sites on Promoter DNA” (PLoS ONE, 2012).

Target: the molecule itself
Assay: crystal structure; Ets1 280-441 mixed 1:1.05 with TCRα promoter dsDNA; (Ets1)2•2DNA crystals grown at 295 K, space group P2_(1), refined at 3.1 Å; asymmetric unit holds an Ets1 homodimer and two pieces of dsDNA

B1: Ets1 (residues 280–441) (domain or fragment, UniProt P14921 280-441, looked up)
chain: VPSYDSFDSEDYPAALPNHKPKGTFKDYVRDRADLNKDKPVIPAAALAGYTGSGPIQLWQFLLELLTDKSCQSFISWTGDGWEFKLSDPDEVARRWGKRKNKPKMNYEKLSRGLRYYYDKNIIHKTAGKRYVYRFVCDLQSLLGYTPEELHAMLDVKPDADE
notes: also called Ets1 dimer; source: cloned, expressed and purified according to reported protocols [36]
  stoichiometry N: 2
